# Like-named read-outs stand apart in the source and are kept apart here.
# B1: 33H9 (antibody, IgG4, V domains shown)
# VH: QVQLVESGGGVVQPGRSLRLSCAASGFTFSSHGMHWVRQPPGKGLEWVAVIWYDGSNEYYGDSVKGRFTISRDNSKNTLYLQMNSLRVEDTAVYYCTRGGGHWNYEGHYYGMDVWGQGTTVTVSS
# VL: QAVPTQPSSLSASPGASASLTCTLRSGINVGSSRIYWYQQKPGSPPQFLLRYTSDSDKLQGSGVPSRFSGSKDASANAGLLLISGLQSEDEADYYCMIWHSSAVVFGGGTKLTVLG
# notes: also called 4897-1
# B2: soluble human CD40L (ligand, UniProt P29965 113-261, looked up)
# chain: MQKGDQNPQIAAHVISEASSKTTSVLQWAEKGYYTMSNNLVTLENGKQLTVKRQGLYYIYAQVTFCSNREASSQAPFIASLCLKSPGRFERILLRAANTHSSAKPCGQQSIHLGGVFELQPGASVFVNVTDPSQVSHGTGFTSFGLLKL
# modifications: fluorescent label in the ligand binding assay of Table 7
# Legend:
# [1] = target: human CD40 (human, UniProt P25942 21-193, limits assumed); experiment: Octet
# Sequence of human CD40 (P25942 21-193 limits assumed): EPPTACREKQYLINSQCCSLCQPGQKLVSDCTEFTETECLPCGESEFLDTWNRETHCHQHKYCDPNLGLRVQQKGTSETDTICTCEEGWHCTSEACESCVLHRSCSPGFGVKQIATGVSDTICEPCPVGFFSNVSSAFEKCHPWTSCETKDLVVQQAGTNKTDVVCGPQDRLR
# Method: (§1) The binding affinity of anti-human CD40 antibodies to human and cynomolgus monkey CD40 was measured by Octet assay (Table 3), quantifying association rate (Kon), disassociation rate (Kdis), and equilibrium binding constant (KD). Cross-reactivity of anti-CD40 antibodies to related TNF receptor superfamily (TNFRSF) members was evaluated by expressing human TNFR1, TNFR2, TNFR10, or TNFR14 on HEK293 cells by transient transfection of expression vectors encoding these genes. Binding of indicated anti-human CD40 antibody to these transfected cells was determined by flow cytometry. […] Cross-reactivity of anti-CD40 antibodies to cynomolgus monkey and mouse CD40 was evaluated by expressing cynomolgus monkey or mouse CD40 on HEK293 cells by transient transfection of expression vectors encoding these genes. Binding of indicated anti-human CD40 antibody to cells overexpressing cynomolgus monkey and mouse CD40 was determined by flow cytometry.
# [2] = target: T1, human CD40 on cells (human, UniProt P25942 21-277); experiment: cell-based or functional assay
# [3] = target: T1, human CD40 on cells; experiment: cell-based or functional assay; remark: listed apart in the source
# Target sequence in this assay (P25942 21-277 limits assumed): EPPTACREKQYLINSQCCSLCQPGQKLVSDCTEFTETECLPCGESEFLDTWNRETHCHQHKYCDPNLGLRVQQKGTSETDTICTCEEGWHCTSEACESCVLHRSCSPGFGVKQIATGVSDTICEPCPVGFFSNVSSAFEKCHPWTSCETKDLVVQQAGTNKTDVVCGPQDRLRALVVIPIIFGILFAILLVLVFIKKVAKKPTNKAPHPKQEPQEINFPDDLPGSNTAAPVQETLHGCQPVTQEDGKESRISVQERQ
# [4] = target: T2, mouse CD40 on cells (mouse, UniProt P27512 20-289); experiment: flow cytometry, HEK293 transfectants
# T2 construct: whole, on cells; also called mouse CD40 on HEK293 cells; CD40 on mouse B cells
# T2 sequence (looked up): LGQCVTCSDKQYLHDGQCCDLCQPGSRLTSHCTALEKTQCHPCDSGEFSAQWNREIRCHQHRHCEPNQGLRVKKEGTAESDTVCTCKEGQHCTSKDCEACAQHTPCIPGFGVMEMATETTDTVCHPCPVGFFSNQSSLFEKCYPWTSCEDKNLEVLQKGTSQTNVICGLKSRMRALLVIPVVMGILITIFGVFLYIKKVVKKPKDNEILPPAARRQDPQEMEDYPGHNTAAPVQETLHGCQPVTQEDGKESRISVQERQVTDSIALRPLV
# [5] = target: T3, human TNFR1 (human, UniProt P19438 30-455); experiment: flow cytometry, HEK293 transfectants
# T3 construct: whole, on cells
# T3 sequence (looked up): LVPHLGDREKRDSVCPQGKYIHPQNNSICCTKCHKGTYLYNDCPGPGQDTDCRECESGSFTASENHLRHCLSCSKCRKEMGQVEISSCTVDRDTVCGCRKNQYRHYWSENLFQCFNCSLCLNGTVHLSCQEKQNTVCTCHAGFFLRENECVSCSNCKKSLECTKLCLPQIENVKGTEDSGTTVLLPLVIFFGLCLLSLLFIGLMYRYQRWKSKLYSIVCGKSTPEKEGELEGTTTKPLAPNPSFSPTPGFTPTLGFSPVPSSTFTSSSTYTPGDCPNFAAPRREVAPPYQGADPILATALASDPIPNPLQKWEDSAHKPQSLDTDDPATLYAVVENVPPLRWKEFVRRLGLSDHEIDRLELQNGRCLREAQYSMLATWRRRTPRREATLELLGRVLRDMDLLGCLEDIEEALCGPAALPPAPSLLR
# Method: as §1
# [6] = target: T4, human TNFR2 (human, UniProt P20333 23-461); experiment: flow cytometry, HEK293 transfectants
# T4 construct: whole, on cells
# T4 sequence (looked up): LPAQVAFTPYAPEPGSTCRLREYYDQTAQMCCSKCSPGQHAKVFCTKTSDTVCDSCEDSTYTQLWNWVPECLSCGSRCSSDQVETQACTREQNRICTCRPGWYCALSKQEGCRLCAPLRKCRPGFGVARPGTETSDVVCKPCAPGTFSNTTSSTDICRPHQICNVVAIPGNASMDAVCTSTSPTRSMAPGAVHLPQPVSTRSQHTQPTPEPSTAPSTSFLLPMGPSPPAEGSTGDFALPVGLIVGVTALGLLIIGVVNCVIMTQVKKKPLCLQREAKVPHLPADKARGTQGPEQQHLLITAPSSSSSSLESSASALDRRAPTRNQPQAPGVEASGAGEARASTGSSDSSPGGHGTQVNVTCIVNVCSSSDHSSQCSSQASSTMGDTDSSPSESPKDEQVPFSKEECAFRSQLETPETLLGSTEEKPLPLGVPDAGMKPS
# Method: as §1
# [7] = target: T5, human TNFR14 (human, UniProt Q92956 39-283); experiment: flow cytometry, HEK293 transfectants
# T5 construct: whole, on cells
# T5 sequence (looked up): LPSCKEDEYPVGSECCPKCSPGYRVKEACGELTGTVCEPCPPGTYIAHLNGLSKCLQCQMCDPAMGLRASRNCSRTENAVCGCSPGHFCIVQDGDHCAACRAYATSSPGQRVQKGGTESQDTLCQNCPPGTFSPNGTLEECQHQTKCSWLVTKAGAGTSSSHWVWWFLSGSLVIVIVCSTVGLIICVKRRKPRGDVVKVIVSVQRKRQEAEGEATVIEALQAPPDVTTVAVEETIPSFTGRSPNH
# Method: as §1
# [8] = target: T6, cynomolgus monkey CD40 on cells (cynomolgus monkey, UniProt P25942 21-277 (human entry)); experiment: flow cytometry, HEK293 transfectants vs control cells
# T6 construct: also called cyno CD40 on HEK293 cells; CD40 on cynomolgus monkey B cells
# T6 chain: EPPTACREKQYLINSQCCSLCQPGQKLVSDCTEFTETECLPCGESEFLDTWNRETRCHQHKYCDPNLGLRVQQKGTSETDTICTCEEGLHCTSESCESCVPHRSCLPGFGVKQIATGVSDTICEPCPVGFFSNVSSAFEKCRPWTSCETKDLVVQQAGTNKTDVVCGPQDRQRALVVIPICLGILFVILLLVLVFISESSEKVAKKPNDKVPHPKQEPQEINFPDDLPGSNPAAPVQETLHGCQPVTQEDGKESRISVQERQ
# Method: as §1
# [9] = target: T2, mouse CD40 on cells; experiment: as above
# Method: as §1
# [10] = target: T3, human TNFR1; experiment: as above
# Method: as §1
# [11] = target: T4, human TNFR2; experiment: as above
# Method: as §1
# [12] = target: T7, human TNFR10 (human); experiment: as above
# T7 construct: whole, on cells; Name as printed is ambiguous (TNFRSF10A-D)
# Method: as §1
# [13] = target: T5, human TNFR14; experiment: as above
# Method: as §1
# [14] = target: T1, human CD40 on cells; experiment: flow cytometry, labelled CD40L on CD40-293T cells, antibody at 5 ug/ml
# Method: (§2) Percent ligand binding inhibition was calculated as [(CD40L binding gMFI in the absence of anti-CD40)−(CD40L binding gMFI in the presence of anti-CD40)]/(CD40L binding gMFI in the absence of anti-CD40). gMFI: geometric mean fluorescent intensity. All anti-CD40 antibodies show minimal effects on the ability of CD40L to bind to the CD40 receptor (Table 7).
# Target sequence in this assay (P25942 21-277 limits assumed): as the sequence (P25942 21-277 limits assumed) above
# [15] = target: T1, human CD40 on cells; experiment: flow cytometry, labelled CD40L on CD40-293T cells, antibody at 10 ug/ml
# Method: as §2
# Target sequence in this assay (P25942 21-277 limits assumed): as the sequence (P25942 21-277 limits assumed) above
# [16] = target: T1, human CD40 on cells; experiment: flow cytometry, labelled CD40L on CD40-293T cells, antibody at 20 ug/ml
# Method: as §2
# Target sequence in this assay (P25942 21-277 limits assumed): as the sequence (P25942 21-277 limits assumed) above
# [17] = target: T1, human CD40 on cells; experiment: flow cytometry, labelled CD40L on CD40-293T cells, antibody at 2.5 ug/ml
# Method: as §2
# Target sequence in this assay (P25942 21-277 limits assumed): as the sequence (P25942 21-277 limits assumed) above
# [18] = target: T1, human CD40 on cells; experiment: cell-based or functional assay; remark: listed apart in the source
binder,measurement,setting,value
B1,Kd,[1],0.58 nM
same,koff,[1],0.000238 s⁻¹
same,kon,[1],407000 M⁻¹ s⁻¹
same,"human B cell proliferation, no crosslinking, EC50",[2],> 16.7 nM
same,"human B cell proliferation, no crosslinking, Max Fold Change",[2],1.35 fold
same,"human B cell proliferation, with protein G crosslinking, EC50",[2],0.344 nM
same,"human B cell proliferation, with protein G crosslinking, Max Fold Change",[2],23.2 fold
same,"human B cell proliferation, no crosslinking, % Max Activity",[3],2.3%
same,"human B cell proliferation, no crosslinking, EC50",[3],> 13.4 nM
same,"human B cell proliferation, with protein G crosslinking, % Max Activity",[3],88.9%
same,"human B cell proliferation, with protein G crosslinking, EC50",[3],0.19 nM
same,binding result,[4],no binding
same,binding result,[5],no binding
same,binding result,[6],no binding
same,binding result,[7],no binding
same,fold over control (gMFI),[8],73 fold
same,fold over control (gMFI),[9],0.9 fold
same,fold over control (gMFI),[10],1.03 fold
same,fold over control (gMFI),[11],0.93 fold
same,fold over control (gMFI),[12],0.89 fold
same,fold over control (gMFI),[13],0.88 fold
same,Ligand Binding Inhibition (%),[14],9%
same,Ligand Binding Inhibition (%),[15],3%
same,Ligand Binding Inhibition (%),[16],1%
same,Ligand Binding Inhibition (%),[17],-3%
B2,"CD40L EC50, human B cell proliferation, no antibody",[18],1.08 ng/mL
same,"CD40L EC50, human B cell proliferation, with 1 ug/ml 4G7",[18],1.04 ng/mL
same,"CD40L EC50, human B cell proliferation, with 1 ug/ml 29H10",[18],0.715 ng/mL
same,"CD40L EC50, human B cell proliferation, with 1 ug/ml 30A12",[18],0.81 ng/mL
same,"CD40L EC50, human B cell proliferation, with 1 ug/ml 33H6",[18],1.14 ng/mL
same,"CD40L EC50, human B cell proliferation, with 1 ug/ml 35F11",[18],6.66 ng/mL
same,"CD40L EC50, human B cell proliferation, with 1 ug/ml 36F3",[18],13 ng/mL
same,"CD40L EC50, human B cell proliferation, with 1 ug/ml 37A6",[18],1.39 ng/mL
same,"CD40L EC50, human B cell proliferation, with 1 ug/ml 39C2",[18],0.985 ng/mL

# Reference: patent US20260109776A1 (Amgen, published 2026)
